Measured values taken from patent US20220396617A1 (BEIJING MABWORKS BIOTECH, published 2022).

T1: human TIGIT (ECD)-his (human, UniProt Q495A1 22-141)
T1 construct: bought protein; also called hTIGIT(ECD)-his; Cat #: 10917-H08H, Sino Biological; not shown: his tag of the bought protein
T1 sequence: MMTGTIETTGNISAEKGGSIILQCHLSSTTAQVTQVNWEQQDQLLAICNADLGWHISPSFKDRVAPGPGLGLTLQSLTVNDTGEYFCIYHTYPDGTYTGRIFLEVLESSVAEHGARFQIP

T2: human TIGIT expressed on HEK293A cells (human, UniProt Q495A1 22-244)
T2 sequence: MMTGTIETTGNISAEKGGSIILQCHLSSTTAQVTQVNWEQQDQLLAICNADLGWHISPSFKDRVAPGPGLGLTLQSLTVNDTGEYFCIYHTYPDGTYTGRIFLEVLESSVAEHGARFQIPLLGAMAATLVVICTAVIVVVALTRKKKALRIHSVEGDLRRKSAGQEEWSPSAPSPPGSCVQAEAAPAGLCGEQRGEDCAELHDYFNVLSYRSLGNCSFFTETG

T3: TIGIT (ECD)-hFc (human, UniProt Q495A1 22-141)
T3 construct: bought protein; also called recombinant human TIGIT (ECD)-hFc; Cat #: 10917-H02H, Sino Biological; not shown: human Fc (hFc) of the bought protein
T3 sequence: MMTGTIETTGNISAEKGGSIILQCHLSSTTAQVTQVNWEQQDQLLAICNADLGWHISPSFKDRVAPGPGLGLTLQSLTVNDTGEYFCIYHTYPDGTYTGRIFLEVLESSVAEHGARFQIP

B1: 70E11-VH3VL3 (antibody, human IgG1, kappa, V domains shown)
VH: QVQLVQSGAEVKKPGASVKVSCKASGYTFTSYNVHWVRQAPGQGLEWIGTIYPGNLATSYNQKFKGRVTLTADKSTSTVYMELSSLRSEDTAVYYCARSGTMDYWGQGTTVTVSS
VL: EIVLTQSPGTLSLSPGERATLSCRASSSISSTYLHWYQQKPGASPKLLIYNTQNLASGIPDRFSGSGSGTSYTLTISRLEPEDFAVYYCQQFGGYPLITFGAGTKLELKR
notes: humanized, human IgG1/kappa
B2: 70E11-VH4VL2 (antibody, human IgG1, kappa, V domains shown)
VH: QVQLVQSGAEVKKPGASVKVSCKASGYTFTSYNVHWVKQTPGQGLEWIGTIYPGNLATSYNQKFKGRVTLTADKSTSTVYMELSSLRSEDTAVYYCARSGTMDYWGQGTTVTVSS
VL: EIVLTQSPGTLSLSPGERATLSCRASSSISSTYLHWYQQKPGQAPKLLIYNTQNLASGIPDRFSGSGSGTSFTLTISRLEPEDFAVYYCQQFGGYPLITFGAGTKLELKR
notes: humanized, human IgG1/kappa
B3: 70E11-VH4VL4 (antibody, human IgG1, kappa, V domains shown)
VH: QVQLVQSGAEVKKPGASVKVSCKASGYTFTSYNVHWVKQTPGQGLEWIGTIYPGNLATSYNQKFKGRVTLTADKSTSTVYMELSSLRSEDTAVYYCARSGTMDYWGQGTTVTVSS
VL: EIVLTQSPGTLSLSPGERATMTCRASSSISSTYLHWYQQKPGASPKLLIYNTQNLASGVPARFSGSGSGTSYTLTISRLEPEDFAVYYCQQFGGYPLITFGAGTKLELKR
notes: humanized, human IgG1/kappa
B4: 70E11-VH3VL2 (antibody, human IgG1, kappa, V domains shown)
VH: QVQLVQSGAEVKKPGASVKVSCKASGYTFTSYNVHWVRQAPGQGLEWIGTIYPGNLATSYNQKFKGRVTLTADKSTSTVYMELSSLRSEDTAVYYCARSGTMDYWGQGTTVTVSS
VL: EIVLTQSPGTLSLSPGERATLSCRASSSISSTYLHWYQQKPGQAPKLLIYNTQNLASGIPDRFSGSGSGTSFTLTISRLEPEDFAVYYCQQFGGYPLITFGAGTKLELKR
notes: humanized, human IgG1/kappa
B5: 70E11-VH1VL1 (antibody, human IgG1, kappa, V domains shown)
VH: QVQLVQSGAEVKKPGASVKVSCKASGYTFTSYNVHWVRQAPGQGLEWMGTIYPGNLATSYNQKFKGRVTMTRDTSTSTVYMELSSLRSEDTAVYYCARSGTMDYWGQGTTVTVSS
VL: EIVLTQSPGTLSLSPGERATLSCRASSSISSTYLHWYQQKPGQAPRLLIYNTQNLASGIPDRFSGSGSGTDFTLTISRLEPEDFAVYYCQQFGGYPLITFGAGTKLELKR
notes: humanized, human IgG1/kappa
B6: 70E11-VH4VL3 (antibody, human IgG1, kappa, V domains shown)
VH: QVQLVQSGAEVKKPGASVKVSCKASGYTFTSYNVHWVKQTPGQGLEWIGTIYPGNLATSYNQKFKGRVTLTADKSTSTVYMELSSLRSEDTAVYYCARSGTMDYWGQGTTVTVSS
VL: EIVLTQSPGTLSLSPGERATLSCRASSSISSTYLHWYQQKPGASPKLLIYNTQNLASGIPDRFSGSGSGTSYTLTISRLEPEDFAVYYCQQFGGYPLITFGAGTKLELKR
notes: humanized, human IgG1/kappa
B7: 70E11-VH3VL4 (antibody, human IgG1, kappa, V domains shown)
VH: QVQLVQSGAEVKKPGASVKVSCKASGYTFTSYNVHWVRQAPGQGLEWIGTIYPGNLATSYNQKFKGRVTLTADKSTSTVYMELSSLRSEDTAVYYCARSGTMDYWGQGTTVTVSS
VL: EIVLTQSPGTLSLSPGERATMTCRASSSISSTYLHWYQQKPGASPKLLIYNTQNLASGVPARFSGSGSGTSYTLTISRLEPEDFAVYYCQQFGGYPLITFGAGTKLELKR
notes: humanized, human IgG1/kappa
B8: 70E11-VH2VL2 (antibody, human IgG1, kappa, V domains shown)
VH: QVQLVQSGAEVKKPGASVKVSCKASGYTFTSYNVHWVRQAPGQGLEWMGTIYPGNLATSYNQKFKGRVTLTADTSTSTVYMELSSLRSEDTAVYYCARSGTMDYWGQGTTVTVSS
VL: EIVLTQSPGTLSLSPGERATLSCRASSSISSTYLHWYQQKPGQAPKLLIYNTQNLASGIPDRFSGSGSGTSFTLTISRLEPEDFAVYYCQQFGGYPLITFGAGTKLELKR
notes: humanized, human IgG1/kappa
B9: 70E11-VH5VL2 (antibody, human IgG1, kappa, V domains shown)
VH: QVQLVQSGAEVKKPGASVKVSCKASGYTFTSYNVHWVKQTPGQGLEWIGTIYPGNLATSYNQKFKGKATLTADKSTSTVYMELSSLRSEDTAVYYCARSGTMDYWGQGTTVTVSS
VL: EIVLTQSPGTLSLSPGERATLSCRASSSISSTYLHWYQQKPGQAPKLLIYNTQNLASGIPDRFSGSGSGTSFTLTISRLEPEDFAVYYCQQFGGYPLITFGAGTKLELKR
notes: humanized, human IgG1/kappa
B10: 70E11-VH5VL3 (antibody, human IgG1, kappa, V domains shown)
VH: QVQLVQSGAEVKKPGASVKVSCKASGYTFTSYNVHWVKQTPGQGLEWIGTIYPGNLATSYNQKFKGKATLTADKSTSTVYMELSSLRSEDTAVYYCARSGTMDYWGQGTTVTVSS
VL: EIVLTQSPGTLSLSPGERATLSCRASSSISSTYLHWYQQKPGASPKLLIYNTQNLASGIPDRFSGSGSGTSYTLTISRLEPEDFAVYYCQQFGGYPLITFGAGTKLELKR
notes: humanized, human IgG1/kappa; also called 70E11H5L3
B11: 70E11-VH2VL3 (antibody, human IgG1, kappa, V domains shown)
VH: QVQLVQSGAEVKKPGASVKVSCKASGYTFTSYNVHWVRQAPGQGLEWMGTIYPGNLATSYNQKFKGRVTLTADTSTSTVYMELSSLRSEDTAVYYCARSGTMDYWGQGTTVTVSS
VL: EIVLTQSPGTLSLSPGERATLSCRASSSISSTYLHWYQQKPGASPKLLIYNTQNLASGIPDRFSGSGSGTSYTLTISRLEPEDFAVYYCQQFGGYPLITFGAGTKLELKR
notes: humanized, human IgG1/kappa
B12: 70E11-VH2VL4 (antibody, human IgG1, kappa, V domains shown)
VH: QVQLVQSGAEVKKPGASVKVSCKASGYTFTSYNVHWVRQAPGQGLEWMGTIYPGNLATSYNQKFKGRVTLTADTSTSTVYMELSSLRSEDTAVYYCARSGTMDYWGQGTTVTVSS
VL: EIVLTQSPGTLSLSPGERATMTCRASSSISSTYLHWYQQKPGASPKLLIYNTQNLASGVPARFSGSGSGTSYTLTISRLEPEDFAVYYCQQFGGYPLITFGAGTKLELKR
notes: humanized, human IgG1/kappa; also called 70E11H2L4
B13: 70E11-VH5VL4 (antibody, human IgG1, kappa, V domains shown)
VH: QVQLVQSGAEVKKPGASVKVSCKASGYTFTSYNVHWVKQTPGQGLEWIGTIYPGNLATSYNQKFKGKATLTADKSTSTVYMELSSLRSEDTAVYYCARSGTMDYWGQGTTVTVSS
VL: EIVLTQSPGTLSLSPGERATMTCRASSSISSTYLHWYQQKPGASPKLLIYNTQNLASGVPARFSGSGSGTSYTLTISRLEPEDFAVYYCQQFGGYPLITFGAGTKLELKR
notes: humanized, human IgG1/kappa
B14: Etigilimab (antibody, V domains shown)
VH: QVQLQESGPGLVKPSETLSLTCAVSGYSITSDYAWNWIRQPPGKGLEWIGYISYSGSTSYNPSLRSRVTISRDTSKNQFFLKLSSVTAADTAVYYCARRQVGLGFAYWGQGTLVTVSS
VL: DIQMTQSPSSLSASVGDRVTITCKASQDVSTAVAWYQQKPGKAPKLLIYSASYRYTGVPSRFSGSGSGTDFTFTISSLQPEDIATYYCQQHYSTPWTFGQGTKVEIK
B15: 149G11-VH1VL1 (antibody, human IgG1, kappa, V domains shown)
VH: QVQLVQSGAEVKKPGASVKVSCKASGYTFTNYWIHWVRQAPGQGLEWMGDIYPGGRYSNYNEKFRGRVTMTRDTSTSTVYMELSSLRSEDTAVYYCARYYESAMDFWGQGTTVTVSS
VL: DIVMTQSPDSLAVSLGERATINCKSSQNLLYNSNQKSYLAWYQQKPGQPPKLLIYWASTRESGVPDRFSGSGSGTDFTLTISSLQAEDVAVYYCQQYYNYPFTFGAGTKLELKR
notes: humanized, human IgG1/kappa
B16: 149G11-VH2VL2 (antibody, human IgG1, kappa, V domains shown)
VH: QVQLVQSGAEVKKPGASVKVSCKASGYTFTNYWIHWVRQAPGQGLEWIGDIYPGGRYSNYNEKFRGRVTLTADTSTSTVYMELSSLTSEDTAVYYCARYYESAMDFWGQGTTVTVSS
VL: DIVMTQSPDSLAVSLGERATINCKSSQNLLYNSNQKSYLAWFQQKPGQPPKLLIYWASTRESGVPDRFSGSGSGTDFTLTISSLQAEDLAVYYCQQYYNYPFTFGAGTKLELKR
notes: humanized, human IgG1/kappa

Key:
human TIGIT (ECD)-his = target: T1, human TIGIT (ECD)-his; experiment: SPR (BIAcore 8K), human TIGIT (ECD)-his on CM5 chip, antibody injected
Procedure: They were also tested in SPR assays for their binding affinities to human and monkey TIGITs using the BIAcore™ 8K instrument (GE Life Sciences, US). […] The binding affinities were calculated with the RUs of blank controls subtracted. The association rate (kₐ) and dissociation rate (kd) were calculated using the one-to-one Langmuir binding model (BIA Evaluation Software, GE Life Sciences, US). The equilibrium dissociation constant KD was calculated as the kd/kₐ ratio.

[1] = target: T2, human TIGIT expressed on HEK293A cells; experiment: cell-based or functional assay
TIGIT (ECD)-hFc [2] = target: T3, TIGIT (ECD)-hFc; experiment: FACS blocking assay (protocol of Example 7): serially diluted antibody pre-incubated with TIGIT (ECD)-hFc, then binding of TIGIT (ECD)-hFc to A549/human PVR cells measured; blocked ligand: human PVR [A]
[3] = target: T2, human TIGIT expressed on HEK293A cells; experiment: FACS, HEK293A/human TIGIT cells, serially diluted antibody (protocol of Example 5) [A]
TIGIT (ECD)-hFc [4] = target: T3, TIGIT (ECD)-hFc; experiment: FACS blocking assay (protocol of Example 7): serially diluted antibody pre-incubated with TIGIT (ECD)-hFc, then binding of TIGIT (ECD)-hFc to A549/human PVR cells measured; blocked ligand: human PVR [B]

Row | Binder | Kd (human TIGIT (ECD)-his) | NK92-mediated ADCC against HEK293A/human TIGIT cells, EC50 [1] | IC50 (read off the curve) (TIGIT (ECD)-hFc [2]) | EC50 (read off the curve) [3] | IC50 (read off the curve) (TIGIT (ECD)-hFc [4])
1 | B1 | 124 pM | 19.1 pM | ~4 µg/mL |  | 
2 | B2 |  | 9.12 pM | ~4 µg/mL |  | 
3 | B3 |  |  | ~4 µg/mL |  | 
4 | B4 |  |  | ~4 µg/mL |  | 
5 | B5 |  | 4.36 pM | ~4 µg/mL |  | 
6 | B6 |  | 7.29 pM | ~4 µg/mL |  | 
7 | B7 | 50.2 pM |  | ~4 µg/mL |  | 
8 | B8 |  |  | ~4 µg/mL |  | 
9 | B9 |  |  | ~4 µg/mL |  | 
10 | B10 | 250 pM | 7.14 pM | ~4 µg/mL |  | 
11 | B11 |  |  | ~4 µg/mL |  | 
12 | B12 | 430 pM | 17.2 pM | ~4 µg/mL |  | 
13 | B13 |  |  | ~4 µg/mL |  | 
14 | B14 |  |  | ~4 µg/mL |  | 
15 | B15 |  |  |  | ~0.2 µg/mL | ~2 µg/mL
16 | B16 |  | 16.2 pM |  | ~0.2 µg/mL | 
